Measurements from the supplement of paper PMC7877785.
± gives the uncertainty stated by the source.

Test: self-splicing fitness, log relative to wild type (ln ratio); higher = more splicing; Tetrahymena group I intron in knt gene, E. coli kanamycin selection, DiMSum; sequences stand for … in CUCUCU…GGAGGGAAAAGUUAUCAGGCAUGCACCUGGUAGCUAGUCUUUAAACCAAUAGAUUGCAUCGGUUUAAAAGGCAAGACCGUCAAAUUGCGGGAAAGGGGUCAACAGCCGUUCAGUACCAAGUCUCAGGGGAAACUUUGAGAUGGCCUUGCAAAGGGUAUGGUAAUAAGCUGACGGACAUGGUCCUAACCACGCAGCCAAGUCCUAAGUCAACAGAUCUUCUGUUGAUAUGGAUGCAGUUCACAGACUAAAUGUCGGUCGGGGAAGAUGUAUUCUUCUCAUAAGAUAUAGUCGGACCUCUCCUUAAUGGGAGCUAGCGGAUGAAGUGAUGCAACACUGGAGCCGCUGGGAACUAAUUUGUAUGCGAAAGUAUAUUGAUUAGUUUUGGAGUACUCGUGGUCG
Procedure, shortened: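 DiMSum derived fitness as the error-weighted combination of fold changes across replicates, kanamycin versus no kanamycin, normalised to wild type. E. coli BL21(DE3) held the library, which randomised all eight P1ex-region intron nucleotides within the knt kanamycin-resistance gene on pET-22b(+). Six replicate transformations grew overnight at 37°C or 30°C on LB agar with or without 25 μg/mL kanamycin, also containing 100 μg/mL carbenicillin, 50 μM IPTG and 0.2% rhamnose, and pooled colonies were amplicon-sequenced on an Illumina HiSeq 2500.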

Sequence	self-splicing fitness (ln) (30 °C)	self-splicing fitness (ln) (37 °C)
UACUAGCAAUAUUACGCAAA	-2.94 ± 0.31	-0.966 ± 0.2
CCGCAGCAAUAUUACGAGGU	-3.73 ± 0.2	-1.84 ± 0.19
GCAUAGCAAUAUUACGAGAC	-2.7 ± 0.32	-1.59 ± 0.23
CAUUAGCAAUAUUACGCUUC	-2.28 ± 0.34	–
AAUGAGCAAUAUUACGUCAG	-1.81 ± 0.45	-2.32 ± 0.42
CUUAAGCAAUAUUACGCAGG	-3.05 ± 0.21	-2.96 ± 0.32
CACCAGCAAUAUUACGUGGC	-3.65 ± 0.17	-2.98 ± 0.21
CACGAGCAAUAUUACGGCAU	-3.23 ± 0.2	-3.52 ± 0.33
GAGUAGCAAUAUUACGCUGA	–	-1.55 ± 0.39
CUAGAGCAAUAUUACGUUUU	-3.96 ± 0.2	-3.8 ± 0.25
CCCGAGCAAUAUUACGAAAA	-2.67 ± 0.46	-1.74 ± 0.42
GACCAGCAAUAUUACGGACG	0.108 ± 0.075	0.272 ± 0.094
ACGAAGCAAUAUUACGACAC	-2.4 ± 0.13	-0.952 ± 0.14
AGCAAGCAAUAUUACGGCUG	-0.939 ± 0.077	-1.4 ± 0.13
GGCUAGCAAUAUUACGUUCU	-0.249 ± 0.082	-0.358 ± 0.1
AUCGAGCAAUAUUACGACGG	-3.75 ± 0.44	-1.7 ± 0.33
UUAUAGCAAUAUUACGCCGG	-0.862 ± 0.19	-0.599 ± 0.32
GUAGAGCAAUAUUACGUUAU	-1.68 ± 0.086	-0.698 ± 0.091
CCGCAGCAAUAUUACGAUGA	-3.2 ± 0.38	–
AGCUAGCAAUAUUACGGCGC	-1.1 ± 0.093	-0.362 ± 0.14
GUCCAGCAAUAUUACGAAGU	-0.504 ± 0.074	0.0552 ± 0.11
AGUUAGCAAUAUUACGAUGC	-1.75 ± 0.2	-0.0326 ± 0.17

Sequence	self-splicing fitness (ln) (30 °C)	self-splicing fitness (ln) (37 °C)
UACCAGCAAUAUUACGCAUA	-0.736 ± 0.072	0.0861 ± 0.083
UCUAAGCAAUAUUACGUCCC	–	-0.386 ± 0.41
CCCAAGCAAUAUUACGAAUC	-2.81 ± 0.24	-2.36 ± 0.27
AGAGAGCAAUAUUACGCCUA	-2.6 ± 0.48	-1.08 ± 0.33
UCGAAGCAAUAUUACGAGUU	-3.31 ± 0.15	-2.04 ± 0.21
GAGUAGCAAUAUUACGGCAU	-0.177 ± 0.089	0.37 ± 0.11
AUAUAGCAAUAUUACGUCUU	-0.0336 ± 0.1	-0.378 ± 0.1
UACCAGCAAUAUUACGGCCG	0.00307 ± 0.099	-0.366 ± 0.12
GUAUAGCAAUAUUACGGACG	-2.73 ± 0.41	-1.3 ± 0.33
CGGUAGCAAUAUUACGCGUG	-2.11 ± 0.15	-1.82 ± 0.14
AUCAAGCAAUAUUACGAGGA	-2.51 ± 0.19	-2.65 ± 0.26
AUGGAGCAAUAUUACGGUUU	-2.56 ± 0.26	-2.26 ± 0.21
CAGCAGCAAUAUUACGUUCG	-0.171 ± 0.056	0.0532 ± 0.076
CUAGAGCAAUAUUACGACCA	-2.61 ± 0.23	-1.15 ± 0.28
GUUAAGCAAUAUUACGGUAG	-2.87 ± 0.17	-1.69 ± 0.17
GGGUAGCAAUAUUACGCGUG	-0.787 ± 0.13	0.175 ± 0.12
CGGUAGCAAUAUUACGACCA	-0.494 ± 0.17	-0.426 ± 0.14
GCUGAGCAAUAUUACGGGUU	-3.5 ± 0.15	-3.05 ± 0.13
CUCGAGCAAUAUUACGGAGC	-3.66 ± 0.26	-3.22 ± 0.3
AGCGAGCAAUAUUACGCUAA	-1.62 ± 0.25	-1.85 ± 0.3
CAGCAGCAAUAUUACGUAUA	-2.42 ± 0.18	-2.81 ± 0.29
